Reference: patent US20090042805A1 (CHIESI FARMACEUTICI S P A, published 2009)
* marks the point of attachment. Quinaldoyl = O=C(c1ccc2ccccc2n1)*

T1: Human recombinant caspase-2 (human, UniProt P42575 170-452, limits assumed)
T1 sequence (looked up): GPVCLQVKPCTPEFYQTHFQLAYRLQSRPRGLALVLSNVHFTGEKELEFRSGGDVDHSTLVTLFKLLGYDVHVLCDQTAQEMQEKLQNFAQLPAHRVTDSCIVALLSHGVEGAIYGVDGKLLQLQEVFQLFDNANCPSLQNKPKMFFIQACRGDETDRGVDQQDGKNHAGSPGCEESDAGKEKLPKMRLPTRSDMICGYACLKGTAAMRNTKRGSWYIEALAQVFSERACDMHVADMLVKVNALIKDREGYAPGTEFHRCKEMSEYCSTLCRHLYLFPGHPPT

T2: Human recombinant caspase-6 (human, UniProt P55212 24-293, limits assumed)
T2 sequence (looked up): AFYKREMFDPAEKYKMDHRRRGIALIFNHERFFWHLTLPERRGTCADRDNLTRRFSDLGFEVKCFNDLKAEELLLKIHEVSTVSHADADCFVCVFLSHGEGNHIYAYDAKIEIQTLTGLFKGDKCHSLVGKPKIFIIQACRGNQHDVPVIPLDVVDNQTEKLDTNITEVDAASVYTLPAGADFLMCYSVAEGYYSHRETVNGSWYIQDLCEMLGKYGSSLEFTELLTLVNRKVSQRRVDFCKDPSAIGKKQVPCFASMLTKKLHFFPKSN

B1: Ac-VDEAD-cho (peptide)
peptide: Ac-VDEAD-aldehyde
SMILES: CC(=O)N[C@H](C(=O)N[C@@H](CC(=O)O)C(=O)N[C@@H](CCC(=O)O)C(=O)N[C@@H](C)C(=O)N[C@H](C=O)CC(=O)O)C(C)C
B2: Ac-LDEAD-cho (peptide)
peptide: Ac-LDEAD-aldehyde
SMILES: CC(=O)N[C@@H](CC(C)C)C(=O)N[C@@H](CC(=O)O)C(=O)N[C@@H](CCC(=O)O)C(=O)N[C@@H](C)C(=O)N[C@H](C=O)CC(=O)O
B3: Ac-LDEGD-cho (peptide)
peptide: Ac-LDEGD-aldehyde
SMILES: CC(=O)N[C@@H](CC(C)C)C(=O)N[C@@H](CC(=O)O)C(=O)N[C@@H](CCC(=O)O)C(=O)NCC(=O)N[C@H](C=O)CC(=O)O
B4: VDEGD pentapeptidic-based inhibitor (peptide)
peptide: Ac-VDEGD-aldehyde
B5: Ac-VDESD-cho (peptide)
peptide: Ac-VDESD-aldehyde
SMILES: CC(=O)N[C@H](C(=O)N[C@@H](CC(=O)O)C(=O)N[C@@H](CCC(=O)O)C(=O)N[C@@H](CO)C(=O)N[C@H](C=O)CC(=O)O)C(C)C
B6: Ac-LDEKD-cho (peptide)
peptide: Ac-LDEKD-aldehyde
SMILES: CC(=O)N[C@@H](CC(C)C)C(=O)N[C@@H](CC(=O)O)C(=O)N[C@@H](CCC(=O)O)C(=O)N[C@@H](CCCCN)C(=O)N[C@H](C=O)CC(=O)O
B7: Ac-FDESD-cho (peptide)
peptide: Ac-FDESD-aldehyde
SMILES: CC(=O)N[C@@H](Cc1ccccc1)C(=O)N[C@@H](CC(=O)O)C(=O)N[C@@H](CCC(=O)O)C(=O)N[C@@H](CO)C(=O)N[C@H](C=O)CC(=O)O
B8: Ac-LDESD-cho (peptide)
peptide: Ac-LDESD-aldehyde
SMILES: CC(=O)N[C@@H](CC(C)C)C(=O)N[C@@H](CC(=O)O)C(=O)N[C@@H](CCC(=O)O)C(=O)N[C@@H](CO)C(=O)N[C@H](C=O)CC(=O)O
B9: Ac-VDVAD-cho (peptide)
peptide: Ac-VDVAD-aldehyde
B10: Qco-VDVAD-CH2O(2,6-difluorophenyl) (peptide)
peptide: Quinaldoyl-VDVAD-{CH2O(2,6-difluorophenyl)}

Molecular target: T1, Human recombinant caspase-2
Test: cell-based or functional assay

In order of rising “IC50 (nM), inhibition of Ac-VDVAD-AMC cleavage by human recombinant caspase-2” value:
1. B9  75 nM
2. B1  85 nM
3. B2  85 nM
4. B5  175 nM
5. B4  260 nM
6. B6  300 nM
7. B8  300 nM
8. B3  430 nM
9. B7  800 nM

Molecular target: T1, Human recombinant caspase-2
Test: cell-based or functional assay
Remark: another data set of the same source

With B10 the “IC50, inhibition of caspase-2” value was 80 nM.

Molecular target: T2, Human recombinant caspase-6
Test: cell-based or functional assay

In the case of B2, the “IC50, inhibition of Ac-VEID-AMC cleavage by human recombinant caspase-6” value is reported as roughly 2000 nM.
